Assay results reported in patent publication US20150218578.

test system: T1, OsMYB55 (Oryza sativa); assay: cell_activity; conditions: GUS transactivation in tobacco leaf vs empty vector; almost eight-fold
T1 sequence: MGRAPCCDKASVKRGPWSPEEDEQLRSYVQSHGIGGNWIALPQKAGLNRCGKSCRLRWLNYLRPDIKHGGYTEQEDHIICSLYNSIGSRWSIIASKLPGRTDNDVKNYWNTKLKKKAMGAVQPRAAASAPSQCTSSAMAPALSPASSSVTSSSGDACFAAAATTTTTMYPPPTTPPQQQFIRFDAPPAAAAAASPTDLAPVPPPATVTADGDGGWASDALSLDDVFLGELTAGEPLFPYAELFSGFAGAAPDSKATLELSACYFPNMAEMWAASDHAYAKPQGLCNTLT

activity, 8 fold:
OsGAD3 promoter 1.5-2 kb (GUS reporter), OsGAT1 promoter 1.5-2 kb (GUS reporter), OsGS1;2 promoter 1.5-2 kb (GUS reporter)
